Measurements taken from paper PMC5606850, “Acidic C-terminal domains autoregulate the RNA chaperone Hfq” (eLife, 2017).

Tests used:
[1] = target: Hfq65 (Hfq core, CTD deleted) (Escherichia coli, UniProt P0A6X3 1-65); experiment: EMSA; 33.3 nM hexamer, 10 C; most stable ternary complex; Anisotropy: 10 mM Tris-HCl pH 7.5, 50 mM NaCl, 50 mM KCl, 30 C; CTD-FITC competition: 50 mM Tris-HCl pH 7.5, 30 C; pUC19 EMSA: 40 mM Tris-HCl pH 7.5, 0.14 mM EDTA, 35 mM NH4Cl, 3.7% glycerol, 25 C (competition legend 30 C); conditions: protein: recombinant; tags: untagged; chain copies: 6; label: 32P on ChiX; partial RNA-RNA duplex
Hfq102 (wild-type Hfq) [2] = target: T1, Hfq102 (wild-type Hfq) (Escherichia coli, UniProt P0A6X3 1-102); experiment: EMSA; 33.3 nM hexamer, 10 C; less ternary complex than Hfq65; Anisotropy: 10 mM Tris-HCl pH 7.5, 50 mM NaCl, 50 mM KCl, 30 C; CTD-FITC competition: 50 mM Tris-HCl pH 7.5, 30 C; pUC19 EMSA: 40 mM Tris-HCl pH 7.5, 0.14 mM EDTA, 35 mM NH4Cl, 3.7% glycerol, 25 C (competition legend 30 C); conditions: protein: recombinant; tags: untagged; chain copies: 6; label: 32P on ChiX; partial RNA-RNA duplex
[3] = system: RNA molecular beacon and Target RNA; conditions: ref Zheng et al., 2016; cited from earlier work
Hfq102 (wild-type Hfq) [4] = target: T1, Hfq102 (wild-type Hfq); experiment: fluorescence anisotropy; Hill 1.4; asterisked value, footnote not in material (possibly earlier work); Anisotropy: 10 mM Tris-HCl pH 7.5, 50 mM NaCl, 50 mM KCl, 30 C; CTD-FITC competition: 50 mM Tris-HCl pH 7.5, 30 C; pUC19 EMSA: 40 mM Tris-HCl pH 7.5, 0.14 mM EDTA, 35 mM NH4Cl, 3.7% glycerol, 25 C (competition legend 30 C); conditions: protein: recombinant; tags: untagged; chain copies: 6; label: Cy3; hairpin with 5' overhang

B1: ChiX·chiP sRNA-mRNA pair (mixed)
RNA 1: GGGACACCGUCGCUUAAAGUGACGGCAUAAUAAUAAAAAAAUGAAAUUCCUCUUUGACGGGCCAAUAGCGAUAUUGGCCAUUUUUUU
RNA 2: GUAGUCAGCGAGACUUUUCUCAACGCUACUUUUUUAAUUUUUAUUUUUUCGCUGUUCACCUUUGGUGCAGCAAUUUAUACGUCAAAGAGGAUUAACCCAUGCGUACGUUUAGUGGC
**Q.** Does B1 bind [1]?
**A.** binds

**Q.** Does B1 bind (Hfq102 (wild-type Hfq) [2])?
**A.** binds

B2: Bacillus subtilis Hfq: Hfq of Bacillus subtilis (protein, UniProt O31796 1-73, looked up)
RNA-binding protein Hfq: MKPINIQDQFLNQIRKENTYVTVFLLNGFQLRGQVKGFDNFTVLLESEGKQQLIYKHAISTFAPQKNVQLELE
**Q.** Which “in vitro RNA annealing activity” value [3] does the source give for B2 here?
**A.** inactive

**Q.** For CUUCCGUCCAUUUCGGACG (structured_RNA, 5' Thiol-C6) [minRCRB-Cy3], which Kd (Hfq102 (wild-type Hfq) [4]) is on record?
**A.** 13.9 ± 1.5 nM hexamer
